# Experimental data as given in US20150174076A1, “MUCOADHESIVE DEVICES FOR DELIVERY OF ACTIVE AGENTS” (Entrega, Inc., priority 2012, published 2015).
# Test system: Caco-2 monolayers
# Assay: Transport of FITC-insulin across Caco-2 monolayer
# Type: in vitro ADME, human
# Description: Caco-2 cell line HTB-37 (American Type Culture Collection, Rockville, Md.), derived from human colon cells, was used for all experiments. Cells were maintained at 37° C. in DMEM supplemented with 25 IU/ml of penicillin, 25 mg/L of streptomycin, 250 μg/L of amphotericin B and 100 ml/L of fetal bovine serum. Monolayers were grown on BD Biocoat™ collagen filter supports (Discovery Labware, Bedford. Mass.). […] At the end of the growth period, the integrity of the cell monolayer was confirmed by transepithelial electrical resistance (TEER) measurements (Millicell-ERS voltohmmeter, Millipore. Billerica, Mass.). Only monolayers with TEER values over 300 Ω cm^2 were used for further experimentation. A solution of FITC-insulin in DMEM was placed on Caco-2 monolayers at various concentrations and samples were collected from the basolateral side and analyzed for fluorescence. To determine insulin transport from wafers, FITC-insulin-containing wafers were placed on Caco-2 monolayers. Samples were taken from the basolateral side and analyzed for insulin concentration.
substance,measurement,value
insulin free in solution: solution of FITC-insulin in DMEM placed on Caco-2 monolayers,transport of insulin across Caco-2 monolayers,dose-dependent
